Reference: US20130244255A1, “ANTIBODIES DIRECTED TO GPNMB AND USES THEREOF” (priority 2006, published 2013)

Tests used:
XF-498 = experiment: Clonogenic assay with CR011-vcMMAE; type: cell-based, human
Experimental: (§1) Cells were plated in 96-well plates and allowed to recover overnight. […] The cells were then transferred into 6-well plates and allowed to form colonies. Colonies were stained with Giemsa stain (Sigma) and counted. The surviving cell fractions were calculated based upon the ratio of the treated sample and the untreated control. The results were expressed as a percentage of control using GraphPad Prism Version 4 software.

SNB-78 = experiment: Clonogenic assay with CR011-vcMMAE; type: cell-based, human
Experimental: as §1

Melanoma cell lines = experiment: Clonogenic assay with 1.15.1-AE, melanoma panel; type: cell-based, human
Experimental: Melanoma cell lines were plated onto flat bottom 96-well tissue culture plates (Becton Dickinson, Franklin Lakes, N.J., USA). On day 2 or when cells reach ˜25% confluency, various concentrations of unconjugated and Auristatin E-conjugated 1.15.1 were added to cells. MAb 2.6.2-AE was also used as a conjugated isotype control in this study. On day 5, the cells were trypsinized, transferred to 6-well tissue culture plates and incubated at 37° C. Plates were examined daily. On days 8-10, all plates were Giemsa stained and colonies on the plates were counted.

SK-Mel-2 cells = experiment: ADCC assay with human PBMC (DELFIA EuTDA cytotoxicity); type: cell-based; conditions: 30 to 100 fold PBMC; 2, 5, 10 μg/200 μl mAb
Experimental: Human PBMC were isolated from whole blood using a Ficoll-Plaque. Briefly, in a 50 mL tube, 15 mL of PBS was added to 20 mL of whole blood which was underlayed with 10 mL Ficoll-Plaque and the tube was centrifuged at 2000 RPM. Mononuclear cells were collected from the interface and washed 3 times with PBS. The ADCC assay was carried out in a 96 well plate using a fluorescence assay for cytolysis from Perkin-Elmer (DELFIAEuTDA Cytotoxic assay). The procedure is based on loading target cells with a fluorescence enhancing ligand (BATDA, bis (acetoxymethyl) terpyridine—dicarboxylate). The hydrophic ligand penetrates the membrane quickly. Within the cell the esterbonds are hydrolyzed to form a hydrophilic ligand (TDA, terpyridine—dicarboxylic acid) which can no longer pass through the membrane. After cytolysis the ligand is released and introduced to the Europium solution. The europium and the ligand form a highly fluorescent and stable chelate (EuTDA). Fluorescence intensity are recorded using excitation and emission wavelengths as λex=340 nm and λem=613 nm, respectively.

GPNMB = molecular target: T1, GPNMB (Homo sapiens, UniProt Q14956); experiment: ELISA of hybridoma supernatants for binding to GPNMB
T1 construct: we cloned the human CG56972 extracellular domain (ECD; aa 23-480); made in house; host or cells: HEK 293 cells
T1 sequence (Q14956 23-492): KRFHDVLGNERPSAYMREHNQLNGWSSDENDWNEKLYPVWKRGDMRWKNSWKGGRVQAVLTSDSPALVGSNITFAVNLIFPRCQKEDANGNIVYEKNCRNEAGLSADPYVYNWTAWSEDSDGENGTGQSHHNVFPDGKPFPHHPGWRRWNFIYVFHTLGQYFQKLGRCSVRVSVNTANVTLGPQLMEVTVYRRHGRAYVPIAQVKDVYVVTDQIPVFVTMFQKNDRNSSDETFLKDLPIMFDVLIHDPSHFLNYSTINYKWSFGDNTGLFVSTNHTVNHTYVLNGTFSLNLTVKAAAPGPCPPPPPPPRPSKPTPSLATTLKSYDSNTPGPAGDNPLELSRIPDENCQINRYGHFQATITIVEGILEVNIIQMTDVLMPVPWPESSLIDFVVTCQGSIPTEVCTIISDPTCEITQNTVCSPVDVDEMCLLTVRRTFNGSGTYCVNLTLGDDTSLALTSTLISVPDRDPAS
Experimental: After 14 days of culture, hybridoma supernatants were screened for GPNMB specific monoclonal antibodies. In the Primary screen, the ELISA plates (Fisher, Cat. No. 12-565-136) were coated with 50 μL/well of GPNMB (1 μg/mL) in Coating Buffer (0.1 M Carbonate Buffer, pH 9.6, NaHCO3 8.4 g/L), then incubated at 4° C. overnight. After incubation, the plates were washed with Washing Buffer (0.05% Tween 20 in PBS) three times. 200 μL/well Blocking Buffer (0.5% BSA, 0.1% Tween 20, 0.01% Thimerosal in 1×PBS) were added and the plates were incubated at room temperature for 1 h. After incubation, the plates were washed with Washing Buffer three times. Aliquots (50 μL/well) of hybridoma supernatants and positive and negative controls were added, and the plates were incubated at room temperature for 2 h. The positive control used throughout was serum from the relevant GPNMB immunized XenoMouse® mouse and the negative control was serum from the KLH-immunized relevant strain of XenoMouse® mouse. After incubation, the plates were washed three times with Washing Buffer. 100 μL/well of detection antibody goat anti-huIgGfc-HRP (Caltag, Cat. No. H10507, using concentration was 1:2000 dilution) was added and the plates were incubated at room temperature for 1 hour. After incubation, the plates were washed three times with Washing Buffer. 100 μl/well of TMB (BioFX Lab. Cat. No. TMSK-0100-01) was added, and the plates were allowed to develop for about 10 minutes (until negative control wells barely started to show color). 50 μl/well stop solution (TMB Stop Solution (BioFX Lab. Cat. No. STPR-0100-01) was then added and the plates were read on an ELISA plate reader at a wavelength of 450 nm.
Hybridoma supernatants were screened for binding to GPNMB by ELISA as described above in Example 2.

Row | Substance | IC50 (XF-498) | IC50 (SNB-78) | effect on growth of all the melanoma cell lines tested (in words) (Melanoma cell lines) | cytolysis of SK-MEL-2 cells (ADCC) (SK-Mel-2 cells) | Avg OD (GPNMB; antibody at 12.3 ng/mL) | Avg OD (GPNMB; antibody at 37 ng/mL) | Avg OD (GPNMB; antibody at 111 ng/mL) | Avg OD (GPNMB; antibody at 333 ng/mL) | Avg OD (GPNMB; antibody at 1 μg/mL) | Avg OD (GPNMB; antibody at 3 μg/mL)
1 | CR011-vcMMAE: CR011 conjugated to monomethyl auristatin E through a protease cleavable valine-citrulline linker; approx. 4 drugs per antibody | approximately 215 ng/mL | ~0.45 µg/mL |  |  |  |  |  |  |  | 
2 | CR011: fully human monoclonal antibody that specifically binds to GPNMB; VH SEQ ID NO: 20, VL SEQ ID NO: 29 |  |  | no effect on growth | did not show any cytolysis | 0.168 | 0.381 | 0.701 | 0.902 | 1.051 | 1.159
